Source: the supplement of paper PMC10126150
± gives the standard deviation of the averaged measurements.

System: ATP
Assay: switch fluorescence ratio, 500 uM ATP over buffer (Cy3 cluster intensity, sum of 5 cycles each) (fold (ratio)); higher = stronger signal-on switching upon ATP binding; sequences stand for … in TCGTCGGCAGCGTCAGATGTGTATAAGAGACAGTTTTTTTTTTTTTTTTTTTTTTTTT…TC
Settings: aptamer strand: ATP DNA aptamer (quencher-CACCTGGGGGAGTATTGCGGAGGAAGG + anchor), 100 nM annealed; ATP concentration: 500 uM
Outline: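 Switching-strand clusters labelled with Cy3 on a modified Illumina MiSeq flow-cell were annealed to 100 nM quencher-labelled ATP aptamer, imaged in selection buffer, and re-imaged after 15 min with 500 uM ATP at 22 °C. This was done over five cycles with NaOH stripping and re-annealing in between. The fluorescence ratio is summed target-cycle over summed buffer-cycle Cy3 intensity per cluster, averaged per switch-domain sequence, excluding clusters outside 100-1000 RFU.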
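Also: ATP exposure 15 min at 22 °C before imaging.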

Row | Sequence | switch fluorescence ratio
1 | GAAGCGTTTG | 0.98 ± 0.039
2 | GAAGGAGTGC | 1.07 ± 0.018
3 | GAAGGAGTGG | 1.027 ± 0.01
4 | GAAGGCAGTC | 1.13 ± 0.04
5 | GAAGGCAGTG | 1 ± 0.011
6 | GAAGGCGTTT | 0.9778 ± 0.0032
7 | GAAGGGAATG | 1.01 ± 0.017
8 | GAAGGGACGT | 1.07 ± 0.026
9 | GAAGGGCATA | 1.02 ± 0.019
10 | GAAGGGCATC | 0.989 ± 0.043
11 | GAAGGGCGGA | 1.018 ± 0.0045
12 | GAAGGGCTGT | 0.993 ± 0.029
13 | GAAGGGGTCA | 0.9904 ± 0.0089
14 | GAAGGGTAAC | 1.03 ± 0.018
15 | GAAGGTATTG | 0.977 ± 0.013
16 | GAAGGTCCAC | 1.017 ± 0.0078
17 | GAAGGTGGCT | 1.01 ± 0.026
18 | GAAGTAGCGA | 1.05 ± 0.015
19 | GAAGTAGGAG | 1.01 ± 0.032
20 | GAAGTCCAGA | 1.01 ± 0.07
21 | GAAGTCCGGG | 0.9871 ± 0.0048
22 | GAAGTCTTAA | 1 ± 0.033

Row | Sequence | switch fluorescence ratio
23 | GAAGTGAGTT | 1 ± 0.018
24 | GAAGTGATGG | 1.135 ± 0.008
25 | GAAGTGGCTT | 0.9801 ± 0.0014
26 | GAAGTGGGTT | 0.989 ± 0.024
27 | GAAGTTCAGG | 1.03 ± 0.018
28 | GAAGTTTGTA | 0.992 ± 0.022
29 | GAATAAAAAC | 1.01 ± 0.013
30 | GAATAAAAGC | 0.9901 ± 0.0063
31 | GAATAAAATA | 1.02 ± 0.039
32 | GAATAGGTTA | 0.983 ± 0.026
33 | GAATAGTCAG | 0.978 ± 0.033
34 | GAATATCAAG | 0.9871 ± 0.0064
35 | GAATATGCCG | 0.972 ± 0.019
36 | GAATATGGGT | 0.995 ± 0.015
37 | GAATCGATTT | 1.02 ± 0.027
38 | GAATCGTTTT | 0.9553 ± 0.0068
39 | GAATGAAAAT | 0.997 ± 0.022
40 | GAATGAACCA | 0.998 ± 0.049
41 | GAATGACAGT | 0.978 ± 0.018
42 | GAATGACCGT | 1.01 ± 0.024
43 | GAATGACGGA | 1.02 ± 0.057
44 | GAATGATGGC | 0.939 ± 0.065

Row | Sequence | switch fluorescence ratio
45 | GAATGCAAAG | 1.03 ± 0.041
46 | GAATGGGATG | 1.002 ± 0.0023
47 | GAATGGGGGC | 0.98 ± 0.036
48 | GAATGGGGGT | 0.982 ± 0.02
49 | GAATGGGTGA | 0.983 ± 0.028
50 | GAATGGTCCC | 1.02 ± 0.012
51 | GAATGGTGGG | 0.988 ± 0.019
52 | GAATGTCGGG | 0.97965 ± 8.2e-05
53 | GAATTAAGCT | 1 ± 0.015
54 | GAATTAATGG | 1.02 ± 0.07
55 | GAATTAATTT | 1 ± 0.04
56 | GAATTAGTTA | 1.01 ± 0.02
57 | GAATTATTGG | 0.975 ± 0.022
58 | GAATTCAAGG | 1.01 ± 0.082
59 | GAATTCCGTA | 1.03 ± 0.042
60 | GAATTCGGGA | 1 ± 0.013
61 | GAATTCTATG | 0.997 ± 0.042
62 | GAATTCTTGA | 0.9532 ± 0.0043
63 | GAATTGATTT | 1.009 ± 0.0065
64 | GAATTGGGTA | 0.957 ± 0.014
65 | GAATTGTACC | 1.03 ± 0.028
66 | GAATTGTTAG | 0.972 ± 0.028

Row | Sequence | switch fluorescence ratio
67 | GAATTTAAAG | 1.007 ± 0.0018
68 | GAATTTCGGT | 1.053 ± 0.0077
69 | GAATTTGGGT | 0.98 ± 0.034
70 | GAATTTTGTA | 0.984 ± 0.041
71 | GACAAAGGAC | 1.47 ± 0.09
72 | GACAAAGGAT | 1.04 ± 0.025
73 | GACAACAAGG | 1.047 ± 0.0089
74 | GACAAGGAGG | 1.02 ± 0.028
75 | GACAAGTATT | 1.01 ± 0.013
76 | GACAATTAGT | 1.04 ± 0.0079
77 | GACACTAAGG | 1.01 ± 0.038
78 | GACACTTAGG | 1.05 ± 0.017
79 | GACACTTGTA | 1.02 ± 0.025
80 | GACAGCGGGG | 0.999 ± 0.036
81 | GACAGGGATC | 2.1 ± 1.6
82 | GACAGGGGCT | 1.06 ± 0.022
83 | GACAGGGGGG | 1.01 ± 0.085
84 | GACAGGTGAA | 2.27 ± 0.041
85 | GACAGGTTAG | 0.9809 ± 0.0069
